# Data published in publication doi:10.1101/2025.03.26.645513 (bioRxiv, 2025).
# B1: Escherichia coli serine acetyltransferase CysE (enzyme)
# chain: MSCEELEIVWNNIKAEARTLADCEPMLASFYHATLLKHENLGSALSYMLANKLSSPIMPAIAIREVVEEAYAADPEMIASAACDIQAVRTRDPAVDKYSTPLLYLKGFHALQAYRIGHWLWNQGRRALAIFLQNQVSVTFQVDIHPAAKIGRGIMLDHATGIVVGETAVIENDVSILQSVTLGGTGKSGGDRHPKIREGVMIGAGAKILGNIEVGRGAKIGAGSVVLQPVPPHTTAAGVPARIVGKPDSDKPSMDMDQHFNGINHTFEYGDGI
# B2: Escherichia coli O-acetylserine sulfhydrylase CysK (enzyme, UniProt P0ABK5 1-323, looked up)
# chain: MSKIFEDNSLTIGHTPLVRLNRIGNGRILAKVESRNPSFSVKCRIGANMIWDAEKRGVLKPGVELVEPTSGNTGIALAYVAAARGYKLTLTMPETMSIERRKLLKALGANLVLTEGAKGMKGAIQKAEEIVASNPEKYLLLQQFSNPANPEIHEKTTGPEIWEDTDGQVDVFIAGVGTGGTLTGVSRYIKGTKGKTDLISVAVEPTDSPVIAQALAGEEIKPGPHKIQGIGAGFIPANLDLKLVDKVIGITNEEAISTARRLMEEEGILAGISSGAAVAAALKLQEDESFTNKNIVVILPSSGERYLSTALFADLFTEKELQQ
# B3: Neisseria gonorrhoeae serine acetyltransferase CysE (enzyme)
# chain: MKKNHLNTTGFDLWHTIREETAAAAAAEPMLASFLHQTVLRHESLGSVLAYHLSSKLGSPIMDVRALFEIYQQALGSDTQISKCVEADLKAIYERDPACDEYSLPLLYFKGFHAIQAHRINHRLYLDGRKTLAYFLQNRMSEVFGVDIHPAARLGYGLMLDHATGFVAGETAVLGNNISILHGVTLGGSGKEGGDRHPKIGDGVMIGANASILGNIRIGSNAKIGAGSVVVSDVPPSITVVGVPAKPVARSLKTPSADMDQNIQFAEIDFMI
# B4: Staphylococcus aureus O-acetylserine sulfhydrylase CysK (enzyme, UniProt P63870 1-310, looked up)
# chain: MAQKPVDNITQIIGGTPVVKLRNVVDDNAADVYVKLEYQNPGGSVKDRIALAMIEKAEREGKIKPGDTIVEPTSGNTGIGLAFVCAAKGYKAVFTMPETMSQERRNLLKAYGAELVLTPGSEAMKGAIKKAKELKEEHGYFEPQQFENPANPEVHELTTGPELLQQFEGKTIDAFLAGVGTGGTLSGVGKVLKKEYPNIEIVAIEPEASPVLSGGEPGPHKLQGLGAGFIPGTLNTEIYDSIIKVGNDTAMEMSRRVAKEEGILAGISSGAAIYAAIQKAKELGKGKTVVTVLPSNGERYLSTPLYSFDD
# What was measured:
# [1] = target: Neisseria gonorrhoeae O-acetylserine sulfhydrylase CysK (Neisseria gonorrhoeae); assay: SEC
# [2] = target: Neisseria gonorrhoeae O-acetylserine sulfhydrylase CysK (Neisseria gonorrhoeae); assay: SEC-SAXS
# [3] = target: B2; assay: SEC
# SEC = target: the molecule itself; assay: SEC
# SEC-SAXS = target: the molecule itself; assay: SEC-SAXS
Molecule,stoichiometry N (SEC),stoichiometry N (SEC-SAXS),also measured
Neisseria gonorrhoeae O-acetylserine sulfhydrylase CysK (enzyme),,,stoichiometry N [1]: 2; stoichiometry N [2]: 2
B1,6,,binding result [3]: binds
B2,,2,
B3,6,,
B4,,2,
